# Results as given in publication PMC10440475 (Heliyon, 2023).
# Several values for one entry are separate records, joined by “and”; a condition that tells them apart may be missing. Equal values may be shown once.
# B1: ORF3aΔN-eGFP (N-terminus truncated SARS-CoV-2 ORF3a with C-terminal eGFP) (domain or fragment)
# chain: PFGWLIVGVALLAVFQSASKIITLKKRWQLALSKGVHFVCNLLLLFVTVYSHLLLVAAGLEAPFLYLYALVYFLQSINFVRIIMRLWLCWKCRSKNPLLYDANYFLCWHTNCYDYCIPYNSVTSSIVITSGDGTTSPISEHDYQIGGYTEKWESGVKDCVVLHSYFTSDYYQLYSTQLSTDTGVEHVTFFIYNKIVDEPEEHVQIHTIDGSSGVVNPVMEPIYDEPTTTTSVPL
# Molecular target: the molecule itself
# Assay: PFO-PAGE
protein,measurement,value
B1,stoichiometry N,5 and 2 and 3 and 4
